{"source": "patent US20260266828A1", "about": "“BIOMARKERS FOR PREDICTING CANCER TREATMENT EFFICACY” (Arcus Biosciences, Inc., priority 2023, published 2026)", "key": {"[1]": {"test_system": "metastatic (Stage IV) squamous or non-squamous NSCLC", "assay": "PFS in serum cytokine selected subsets of the trial of Example 2", "type": "in vivo, human", "conditions": "median", "experimental": "(§1) Soluble biomarkers were retrospectively analyzed in baseline and on-treatment peripheral blood derived samples obtained from a subset of subjects enrolled in the clinical trial of Example 2. Baseline samples were obtained on day 1 of cycle 1 (CID1), prior to administration of any study drugs. On-treatment samples were obtained on day 1 of cycle 2 (C2D1), prior to administration of study drugs on that day.\n(§2) Blood collected in serum separator tubes was allowed to clot for 30-60 minutes before centrifugation at 1300 g for 10 minutes to separate the serum. Serum was isolated and stored at −80° C. until cytokine analysis. Serum cytokines were quantified in multiplex assays using the Meso Scale Discovery platform following the manufacturer's protocol. Briefly, plates were coated with biotinylated capture antibodies specific to the analyte of interest bound to linkers specific to unique spots in each well of a 96-well plate. Serum samples, assessed in duplicate, were diluted 8-fold to quantify CXCL9, CXCL10, CXCL11 and IL-18 in a U-plex assay, diluted 10-fold to quantify IL-12B in a U-plex assay, and diluted 5-fold to quantify IFNγ, TNFα and IL-6 in the S-plex assay. Samples were incubated on linker/capture antibody-coated plates, followed by detection with a sulfo-tag-labelled antibody for the U-plex assays and a TURBO-tag-labelled antibody for the S-plex assay. For the S-plex assay, additional steps incorporated in the manufacturer's protocol to amplify signal with enhance solution and detection solution were followed. Following addition of read buffer, the electrochemiluminescent signal was measured on a MESO Sector S 600 instrument. Between each step of the protocol plates were washed with 0.05% Tween-PBS. A standard curve was generated for each plate using a 4-parameter logistic fit with 1/y^2 weighting. Cytokine concentrations in samples were interpolated using the standard curve, allowing quantification of the analyte of interest. Fold change from baseline was calculated as a ratio of the cytokine concentration at C2D1 over the cytokine concentration at baseline. A linear mixed model performed on log transformed raw cytokine values with baseline values as covariates assessed the difference in cytokine levels over time and between treatment groups.\nKaplan-Meier survival plots using progression-free survival data and cytokine concentrations were generated in the Jmp software, and hazard ratios were calculated between patient groups of interest. Comparisons were made for each analyte between zimberelimab monotherapy and domvanalimab combination groups both at baseline and using the fold change at C2D1 using median values to stratify patients in to low and high cytokine groups. Stratifying subjects by baseline cytokine expression (e.g., CXCL9, CXCL10, CXCL11, LL-6, TNFα) around the median value (high vs. low) enriched for clinical benefit with the addition of domvanalimab. Baseline reference values derived from the biomarker evaluable population (BEP) are as follows (high is ≥reference value, and low is <reference value): CXCL9: 278.7 pg/mL; CXCL10: 445.4 pg/mL; CXCL11:104.2 pg/mL; L-6: 15550 fg/mL; TNFα: 1194 fg/mL. Induction reference values derived from the BEP are as follows (high is ≥reference value, and low is <reference value): CXCL9: 1.76 fold change; CXCL10: 1.52 fold change; […]: 1.14 fold change IL-18: 1.1 fold change; IFNγ: 1.23 fold change."}, "[2]": {"test_system": "CXCL9, CXCL10, CXCL11, IL-12B, IL-18, IL-6, IFNγ, TNFα", "assay": "Serum cytokines, Meso Scale Discovery multiplex assays, baseline and C2D1", "type": "in vivo, human", "experimental": "as §1, §2"}}, "data": [{"molecule": "zimberelimab (antibody, chains of the INN, looked up, V domains shown, zimberelimab monotherapy 360 mg IV Q3W; anti-PD-1 antibody) VH: QLQLQESGPGLVKPSETLTLTCTVSADSISSTTYYWVWIRQPPGKGLEWIGSISYSGSTYYNPSLKSRVTVSVDTSKNQFSLKLNSVAATDTALYYCARHLGYNGRYLPFDYWGQGTLVTVSS VL: QSALTQPASVSGSPGQSITISCTGTSSDVGFYNYVSWYQQHPGKAPELMIYDVSNRPSGVSDRFSGSKSGNTASLTISGLQAEDEADYYCSSYTSISTWVFGGGTKLTVL", "values": [{"measurement": "PFS", "setting": "[1]; BEP (fold change from baseline to C2D1)", "result": 5.7, "unit": "mo"}, {"measurement": "PFS", "setting": "[1]; BEP for cytokine analysis (baseline samples)", "result": 5.6, "unit": "mo"}, {"measurement": "PFS", "setting": "[1]; CXCL9 High Induction at C2D1 (≥1.76 fold change)", "result": 2.7, "unit": "mo"}, {"measurement": "PFS", "setting": "[1]; CXCL9 High at Baseline (≥278.7 pg/mL)", "result": 4, "unit": "mo"}, {"measurement": "PFS", "setting": "[1]; CXCL9 Low Induction at C2D1 (<1.76 fold change)", "result": 9.7, "unit": "mo"}, {"measurement": "PFS", "setting": "[1]; CXCL9 Low at Baseline (<278.7 pg/mL)", "result": 7.6, "unit": "mo"}, {"measurement": "PFS", "setting": "[1]; CXCL10 High Induction at C2D1 (≥1.52 fold change)", "result": 2.7, "unit": "mo"}, {"measurement": "PFS", "setting": "[1]; CXCL10 High at Baseline (≥445.4 pg/mL)", "result": 5.4, "unit": "mo"}, {"measurement": "PFS", "setting": "[1]; CXCL10 Low Induction at C2D1 (<1.52 fold change)", "result": 11.7, "unit": "mo"}, {"measurement": "PFS", "setting": "[1]; CXCL10 Low at Baseline (<445.4 pg/mL)", "result": 7.6, "unit": "mo"}, {"measurement": "PFS", "setting": "[1]; CXCL11 High at Baseline (≥104.2 pg/mL)", "result": 4.9, "unit": "mo"}, {"measurement": "PFS", "setting": "[1]; CXCL11 Low at Baseline (<104.2 pg/mL)", "result": 5.6, "unit": "mo"}, {"measurement": "PFS", "setting": "[1]; IFNγ High Induction at C2D1 (≥1.23 fold change)", "result": 4.5, "unit": "mo"}, {"measurement": "PFS", "setting": "[1]; IFNγ Low Induction at C2D1 (<1.23 fold change)", "result": 11.7, "unit": "mo"}, {"measurement": "PFS", "setting": "[1]; IL-6 High at Baseline (≥15550 fg/mL)", "result": 1.8, "unit": "mo"}, {"measurement": "PFS", "setting": "[1]; IL-6 Low at Baseline (<15550 fg/mL)", "result": 9.6, "unit": "mo"}, {"measurement": "PFS", "setting": "[1]; IL-12B High Induction at C2D1 (≥1.14 fold change)", "result": 9.6, "unit": "mo"}, {"measurement": "PFS", "setting": "[1]; IL-12B Low Induction at C2D1 (<1.14 fold change)", "result": 2.5, "unit": "mo"}, {"measurement": "PFS", "setting": "[1]; IL-18 High Induction at C2D1 (≥1.1 fold change)", "result": 5.7, "unit": "mo"}, {"measurement": "PFS", "setting": "[1]; IL-18 Low Induction at C2D1 (<1.1 fold change)", "result": 4.5, "unit": "mo"}, {"measurement": "PFS", "setting": "[1]; TNFα High at Baseline (≥1194 fg/mL)", "result": 3.5, "unit": "mo"}, {"measurement": "PFS", "setting": "[1]; TNFα Low at Baseline (<1194 fg/mL)", "result": 5.7, "unit": "mo"}, {"measurement": "CXCL9, Fold change, median", "setting": "[2]; C2D1 over baseline", "result": 2.4}, {"measurement": "CXCL10, Fold change, median", "setting": "[2]; C2D1 over baseline", "result": 1.7}, {"measurement": "CXCL11, Fold change, median", "setting": "[2]; C2D1 over baseline", "result": 1.6}, {"measurement": "IFNγ, Fold change, median", "setting": "[2]; C2D1 over baseline", "result": 1.6}, {"measurement": "IL-6, Fold change, median", "setting": "[2]; C2D1 over baseline", "result": 1.0}, {"measurement": "IL-12B, Fold change, median", "setting": "[2]; C2D1 over baseline", "result": 1.5}, {"measurement": "IL-18, Fold change, median", "setting": "[2]; C2D1 over baseline", "result": 1.2}, {"measurement": "TNFα, Fold change, median", "setting": "[2]; C2D1 over baseline", "result": 1.2}, {"measurement": "CXCL9, C2D1, median", "setting": "[2]; day 1 of cycle 2, pre-dose", "result": 621, "unit": "pg/mL"}, {"measurement": "CXCL10, C2D1, median", "setting": "[2]; day 1 of cycle 2, pre-dose", "result": 639, "unit": "pg/mL"}, {"measurement": "CXCL11, C2D1, median", "setting": "[2]; day 1 of cycle 2, pre-dose", "result": 172, "unit": "pg/mL"}, {"measurement": "IFNγ, C2D1, median", "setting": "[2]; day 1 of cycle 2, pre-dose", "result": 1100, "unit": "fg/mL"}, {"measurement": "IL-6, C2D1, median", "setting": "[2]; day 1 of cycle 2, pre-dose", "result": 14385, "unit": "fg/mL"}, {"measurement": "IL-12B, C2D1, median", "setting": "[2]; day 1 of cycle 2, pre-dose", "result": 284, "unit": "pg/mL"}, {"measurement": "IL-18, C2D1, median", "setting": "[2]; day 1 of cycle 2, pre-dose", "result": 779, "unit": "pg/mL"}, {"measurement": "TNFα, C2D1, median", "setting": "[2]; day 1 of cycle 2, pre-dose", "result": 1336, "unit": "fg/mL"}]}]}
